The results in this text go back to the Human Domainome abundance scans (Beltran et al. 2025).

± gives the uncertainty stated by the source.

B1: CD2-associated protein, residues 271 to 331; numbered along this chain, Q9Y5K6 (parent)
chain: KEYCRTLFAYEGTNEDELTFKEGEIIHLISKETGEAGWWRGELNGKEGVFPDNFAVQINEL

The data set covers variants of B1. Briefly: abundance fitness (aPCA) (normalised: wild type 0, dead -1); higher = more abundant; growth selection in yeast, the domain comes from the species named. The following applies: Homo sapiens.
Regarding KEYCRTLFAYEGTNEDELTFKEGEIIHLISKETGEAWWWRGELNGKEGVFPDNFAVQINEL [G37W], the abundance fitness is -1.08 ± 0.43.

With KEYCRTLFAYEGTNEDELTFKEGEIIHLISKETGEASWWRGELNGKEGVFPDNFAVQINEL [G37S], the abundance fitness is -0.718 ± 0.1.

For KEYCRTLFAYEGTNEDELTFKEGEIIHLISKETGEALWWRGELNGKEGVFPDNFAVQINEL [G37L], the abundance fitness is -0.884 ± 0.12.

With KEYCRTLFAYEGTNEDELTFKEGEIIHLISKETGEAQWWRGELNGKEGVFPDNFAVQINEL [G37Q], the abundance fitness is -0.428 ± 0.2.

KEYCRTLFAYEGTNEDELTFKEGEIIHLISKETGEAEWWRGELNGKEGVFPDNFAVQINEL [G37E]: the abundance fitness was -0.368 ± 0.19.

As for KEYCRTLFAYEGTNEDELTFKEGEIIHLISKETGEANWWRGELNGKEGVFPDNFAVQINEL [G37N], the abundance fitness is -0.747 ± 0.16.

Consider KEYCRTLFAYEGTNEDELTFKEGEIIHLISKETGEAMWWRGELNGKEGVFPDNFAVQINEL [G37M], for which the abundance fitness is -0.819 ± 0.17.

For the variant KEYCRTLFAYEGTNEDELTFKEGEIIHLISKETGEAHWWRGELNGKEGVFPDNFAVQINEL [G37H], the abundance fitness is -0.306 ± 0.17.

Regarding KEYCRTLFAYEGTNEDELTFKEGEIIHLISKETGEARWWRGELNGKEGVFPDNFAVQINEL [G37R], the abundance fitness was -0.651 ± 0.09.

Regarding KEYCRTLFAYEGTNEDELTFKEGEIIHLISKETGEAVWWRGELNGKEGVFPDNFAVQINEL [G37V], the abundance fitness was -0.647 ± 0.1.

With KEYCRTLFAYEGTNEDELTFKEGEIIHLISKETGEAFWWRGELNGKEGVFPDNFAVQINEL [G37F], the abundance fitness is -0.492 ± 0.25.

KEYCRTLFAYEGTNEDELTFKEGEIIHLISKETGEAKWWRGELNGKEGVFPDNFAVQINEL [G37K]: the abundance fitness is -0.403 ± 0.097.

Regarding KEYCRTLFAYEGTNEDELTFKEGEIIHLISKETGEAIWWRGELNGKEGVFPDNFAVQINEL [G37I], the abundance fitness is -0.613 ± 0.2.

In the case of KEYCRTLFAYEGTNEDELTFKEGEIIHLISKETGEAPWWRGELNGKEGVFPDNFAVQINEL [G37P], the abundance fitness is -0.852 ± 0.2.

Regarding KEYCRTLFAYEGTNEDELTFKEGEIIHLISKETGEADWWRGELNGKEGVFPDNFAVQINEL [G37D], the abundance fitness is -0.617 ± 0.17.

As to KEYCRTLFAYEGTNEDELTFKEGEIIHLISKETGEAYWWRGELNGKEGVFPDNFAVQINEL [G37Y], the abundance fitness was -0.898 ± 0.2.

Regarding KEYCRTLFAYEGTNEDELTFKEGEIIHLISKETGEATWWRGELNGKEGVFPDNFAVQINEL [G37T], the abundance fitness is -0.416 ± 0.32.

Turning to KEYCRTLFAYEGTNEDELTFKEGEIIHLISKETGEAGQWRGELNGKEGVFPDNFAVQINEL [W38Q], the abundance fitness was -0.3 ± 0.1.

Consider KEYCRTLFAYEGTNEDELTFKEGEIIHLISKETGEAGYWRGELNGKEGVFPDNFAVQINEL [W38Y], for which the abundance fitness is -0.043 ± 0.079.

KEYCRTLFAYEGTNEDELTFKEGEIIHLISKETGEAGGWRGELNGKEGVFPDNFAVQINEL [W38G]: the abundance fitness is -0.559 ± 0.13.

Regarding KEYCRTLFAYEGTNEDELTFKEGEIIHLISKETGEAGFWRGELNGKEGVFPDNFAVQINEL [W38F], the abundance fitness is -0.145 ± 0.12.

On to KEYCRTLFAYEGTNEDELTFKEGEIIHLISKETGEAGIWRGELNGKEGVFPDNFAVQINEL [W38I], for which the abundance fitness is -0.361 ± 0.075.

With KEYCRTLFAYEGTNEDELTFKEGEIIHLISKETGEAGVWRGELNGKEGVFPDNFAVQINEL [W38V], the abundance fitness was -0.249 ± 0.069.

Turning to KEYCRTLFAYEGTNEDELTFKEGEIIHLISKETGEAGHWRGELNGKEGVFPDNFAVQINEL [W38H], the abundance fitness was -0.349 ± 0.12.

On to KEYCRTLFAYEGTNEDELTFKEGEIIHLISKETGEAGCWRGELNGKEGVFPDNFAVQINEL [W38C], for which the abundance fitness is -0.345 ± 0.072.

Consider KEYCRTLFAYEGTNEDELTFKEGEIIHLISKETGEAGNWRGELNGKEGVFPDNFAVQINEL [W38N], for which the abundance fitness is -0.787 ± 0.13.

Consider KEYCRTLFAYEGTNEDELTFKEGEIIHLISKETGEAGAWRGELNGKEGVFPDNFAVQINEL [W38A], for which the abundance fitness was -0.502 ± 0.076.

Take KEYCRTLFAYEGTNEDELTFKEGEIIHLISKETGEAGTWRGELNGKEGVFPDNFAVQINEL [W38T]: the abundance fitness was -0.404 ± 0.075.

With KEYCRTLFAYEGTNEDELTFKEGEIIHLISKETGEAGEWRGELNGKEGVFPDNFAVQINEL [W38E], the abundance fitness is -0.781 ± 0.19.

Consider KEYCRTLFAYEGTNEDELTFKEGEIIHLISKETGEAGKWRGELNGKEGVFPDNFAVQINEL [W38K], for which the abundance fitness is -0.034 ± 0.077.

Regarding KEYCRTLFAYEGTNEDELTFKEGEIIHLISKETGEAGRWRGELNGKEGVFPDNFAVQINEL [W38R], the abundance fitness is -0.216 ± 0.062.

Consider KEYCRTLFAYEGTNEDELTFKEGEIIHLISKETGEAGPWRGELNGKEGVFPDNFAVQINEL [W38P], for which the abundance fitness was -0.729 ± 0.1.

For KEYCRTLFAYEGTNEDELTFKEGEIIHLISKETGEAGMWRGELNGKEGVFPDNFAVQINEL [W38M], the abundance fitness is -0.17 ± 0.11.

As for KEYCRTLFAYEGTNEDELTFKEGEIIHLISKETGEAGSWRGELNGKEGVFPDNFAVQINEL [W38S], the abundance fitness was -0.675 ± 0.075.

Regarding KEYCRTLFAYEGTNEDELTFKEGEIIHLISKETGEAGDWRGELNGKEGVFPDNFAVQINEL [W38D], the abundance fitness was -0.825 ± 0.18.

On to KEYCRTLFAYEGTNEDELTFKEGEIIHLISKETGEAGWWLGELNGKEGVFPDNFAVQINEL [R40L], for which the abundance fitness is -0.009 ± 0.05.

On to KEYCRTLFAYEGTNEDELTFKEGEIIHLISKETGEAGWWYGELNGKEGVFPDNFAVQINEL [R40Y], for which the abundance fitness is -0.195 ± 0.12.

On to KEYCRTLFAYEGTNEDELTFKEGEIIHLISKETGEAGWWSGELNGKEGVFPDNFAVQINEL [R40S], for which the abundance fitness is -0.609 ± 0.066.

Regarding KEYCRTLFAYEGTNEDELTFKEGEIIHLISKETGEAGWWNGELNGKEGVFPDNFAVQINEL [R40N], the abundance fitness was -0.706 ± 0.17.

In the case of KEYCRTLFAYEGTNEDELTFKEGEIIHLISKETGEAGWWIGELNGKEGVFPDNFAVQINEL [R40I], the abundance fitness is -0.547 ± 0.11.

As for KEYCRTLFAYEGTNEDELTFKEGEIIHLISKETGEAGWWKGELNGKEGVFPDNFAVQINEL [R40K], the abundance fitness stood at 0.014 ± 0.066.

As to KEYCRTLFAYEGTNEDELTFKEGEIIHLISKETGEAGWWVGELNGKEGVFPDNFAVQINEL [R40V], the abundance fitness is -0.513 ± 0.069.

Consider KEYCRTLFAYEGTNEDELTFKEGEIIHLISKETGEAGWWFGELNGKEGVFPDNFAVQINEL [R40F], for which the abundance fitness is -0.16 ± 0.091.
